According to PMC5923107 (Antimicrobial Agents and Chemotherapy, 2018):

Experiments:
Assay in all cases: ELISA
Settings in all cases: both partners purified
[1] = target: T1, hemagglutinin (HA) of influenza B virus B/Brisbane/60/2008 (Victoria lineage) (Influenza B virus B/Brisbane/60/2008, UniProt C0LT35, strain)
T1 construct: also called B/Brisbane/60/2008 HA; source: bought: Immune Tech

[2] = target: T2, hemagglutinin (HA) of influenza B virus B/Malaysia/2506/2004 (Victoria lineage) (Influenza B virus B/Malaysia/2506/2004; …, UniProt C0LT35, strain)
T2 construct: also called B/Malaysia/2506/2004 HA; source: bought: Protein Sciences

[3] = target: T3, hemagglutinin (HA) of influenza B virus B/Victoria/2/1987 (Victoria lineage) (Influenza B virus B/Victoria/2/1987, UniProt P22092, strain)
T3 construct: also called B/Victoria/2/1987 HA; source: bought: Immune Tech

[4] = target: T4, hemagglutinin (HA) of influenza B virus B/Florida/04/2006 (Yamagata lineage) (Influenza B virus B/Florida/4/2006, UniProt E1TVD5, strain)
T4 construct: also called B/Florida/4/2006 HA; HA of B/Florida/04/2006; source: bought: Sino Biological

Measured: binding result

B1: TRL854 (antibody, V domains shown)
VH: QVQLVESGAEVKKPGASVRVSCKGSGYTFTAYHMHWVRQAPGQGFEWVGWINPNSGATYYTSTFEGRVTMTRDTSITTAYMELSSLRSDDTAVYYCATDIVVERDASLGGFNSYGMDVWGQGTTVTVSS
VL: DIEMTQSPLSLPVTPGEPASISCRSSQSLLHSNGYNHLAWYLQKPGRSPHLLIYLASTRASGVPDRFSGSGSGTDFTLKISRVEAEDVGIYYCMQSLQTSITFGQGTRLEIK
notes: also called MAb TRL854
binds: all assays above

B2: TRL845 (antibody, V domains shown)
VH: QVQLVQSGGDLVQPGGSLRLSCAASGFTFSRYSMNWVRQAPGMGLEWVAYISDTSRTIYYADSVKGRFTISRDNAKNSLYLQMKSLRDEDTAVYYCARDPDTPFVRAFDSWGQGTLVTVSS
VL: DIVLTQSPSFLSASVGDRVTITCRASQLISSYFAWYQQKPGKPPKLLIYAASTLQSGVPSRFSGSGSGTQFSLTISSLQPEDFATYYCQQLNSYPPITFGQGTRLEIK
notes: also called MAb TRL845
binds: [1] | [2] | [3]

B3: TRL847 (antibody, V domains shown)
VH: QVQLVESGGGLVQPGGSLRLSCVASGFTFSRFSMNWVRQAPGMGLEWVSYISDTGRTIYYADSVKGRFTISRDNDKNTLYLQMKSLRDEDSAFYYCARDPDTPFVRAFDSWGQGVLVTVSS
VL: DIVMTQSPSFLSASVGDRVTITCRTSQVISSYLAWYQQRPGKAPKLLIYAASTLQSGVPSRFSGSGSGTRFSLTISNLQPEDFATYFCQQLTTYPPITFGQGTRLEIK
notes: also called MAb TRL847
binds: all assays above

B4: TRL848 (antibody, V domains shown)
VH: QVQLLESGGDVVQPGTSLRLSCAASGFSLWTSGMHWVRQAPGKGLEWVAVMSYDETKKYYADSVRGRFSISRDNSRNTLYLQMNSLRVEDTAVYFCAKPRLDYLDYFHAADSWGQGTLVSVSS
VL: DIVLTQPPSVSVAPGQTATITCGGNYIGSKSVNWYQQRPGHAPVLVVYDDSDRPSGIPDRFSGSNSRSTATTATLTISRVEAGDEADYYCQVWETSEDLWVFGGGTKLTVL
notes: also called MAb TRL848
binds: all assays above

B5: TRL849 (antibody, V domains shown)
VH: QVQLVESGPGLVKPSQTLSLTCTVSGGSISNGGYHWSWIRQHPGKGLEWIGNIYYRGSTFYDPSLKSRVTISVDTSKSQFSLKLTSVTAADTAVYYCARMPLANYDLLTGLYIGAFDLWGQGTMVTVSS
VL: DIVLTQSPATLSVSPGERATLSCRASQSVNRNLAWFQQIPGQAPRLLIFDASTRAADIPARFSGGGSGAEFTLTVSSLQPEDFAVYYCQQYDKWPPGFGQGTKVEIK
notes: also called MAb TRL849
binds: [1] | [2] | [3]
